Assay results from publication PMC2150699 (The Journal of Cell Biology, 2000).

Key:
[1] = biological target: HT-WG (hexahistidine-tagged WG fragment of N-WASP, amino acids 1-277) (bovine, UniProt Q95107 1-277); assay: pull-down
[2] = biological target: HT-WGP (hexahistidine-tagged WGP fragment of N-WASP, amino acids 1-396) (bovine, UniProt Q95107 1-396); assay: pull-down
Sequence of HT-WGP (hexahistidine-tagged WGP fragment of N-WASP, amino acids 1-396) (Q95107 1-396): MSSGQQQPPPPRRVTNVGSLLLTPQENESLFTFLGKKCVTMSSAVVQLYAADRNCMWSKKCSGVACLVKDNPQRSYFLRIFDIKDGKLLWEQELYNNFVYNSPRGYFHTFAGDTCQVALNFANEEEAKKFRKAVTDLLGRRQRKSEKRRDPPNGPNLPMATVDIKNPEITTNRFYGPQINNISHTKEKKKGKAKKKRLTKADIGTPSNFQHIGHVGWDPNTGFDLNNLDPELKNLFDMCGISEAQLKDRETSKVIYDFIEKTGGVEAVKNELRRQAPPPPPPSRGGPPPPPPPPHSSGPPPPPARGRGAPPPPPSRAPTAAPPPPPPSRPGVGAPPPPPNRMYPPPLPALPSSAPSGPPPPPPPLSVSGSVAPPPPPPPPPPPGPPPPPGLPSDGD

Sequence of HT-WG (hexahistidine-tagged WG fragment of N-WASP, amino acids 1-277) (Q95107 1-277): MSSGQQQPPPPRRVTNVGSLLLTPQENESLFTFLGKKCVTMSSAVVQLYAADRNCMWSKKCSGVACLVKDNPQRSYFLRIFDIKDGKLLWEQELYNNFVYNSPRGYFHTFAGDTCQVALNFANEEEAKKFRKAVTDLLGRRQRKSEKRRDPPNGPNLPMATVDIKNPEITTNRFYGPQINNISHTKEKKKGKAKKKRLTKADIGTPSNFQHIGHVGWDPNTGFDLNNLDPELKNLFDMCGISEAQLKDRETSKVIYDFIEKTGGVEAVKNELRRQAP

binding result [1]: binds | binding result [2]: binds
B1: GST-VCA (GST fusion of the COOH-terminal VCA segment of bovine N-WASP, amino acids 392-505) (domain or fragment, UniProt Q95107 392-505, looked up)
chain: PSDGDHQVPTPAGSKAALLDQIREGAQLKKVEQNSRPVSCSGRDALLDQIRQGIQLKSVTDAPESTPPAPAPTSGIVGALMEVMQKRSKAIHSSDEDEDEDDDEDFEDDDEWED
